In article PMC11580166, “VPS26 Moonlights as a β-Arrestin-like Adapter for a 7-Transmembrane RGS Protein in Arabidopsis thaliana” (Biochemistry, 2024):

B1: Vacuolar Protein Sorting-Associated 26B (AtVPS26B) [Arabidopsis thaliana] / Vacuolar Protein Sorting-Associated 26A (AtVPS26A) [Arabidopsis thaliana] (parent complex)
chain 1: MNYLLGAFKPACNISITFSDGKNRKQVPMKKENGQTALVPLFHSQDTISGKVCIEPYQGKKVEHNGVKVELLGQIEMYFDRGNFYDFTSLVRELDVPGEIYERKTYPFEFPTVEMPYETYNGVNVRLRYVLKVTVTRGYAGSILEYQELVVRNYAPLPDINNSIKMEVGIEDCLHIEFEYNKSKYHLKDVILGKIYFLLVRIKMKNMDLEIRRRESTGAGANTHVETETLAKFELMDGTPVRGESIPVRLFLAPYDLTPTHRNINNKFSVKYYLNLVLVDEEDRRYFKQQEITLYRLKEDASS
chain 2: MNYLLGAFKPACNISITFTDGKNRKQVPTKKDNGQIVMNPLFQSQETIAGKINIEPYQGKKVEHNGVKVELLGQIEMYFDRGNFYDFTSLVREIDVPGEIYERKTYPFEFSSVEMPYETYNGVNVRLRYVLKVTVTRGYAGSIVEYQDFVVRNYVPLPPINNSIKMEVGIEDCLHIEFEYNKSKYHLKDVILGKIYFLLVRIKIKNMDLEIRRRESTGAGANTHVETETLAKFELMDGAPVRGESIPVRVFLTPYDLTPTHKNINNKFSVKYYLNLVLVDEEDRRYFKQQEITLYRLKEETS

Variants of: B1
Experiment: Microscale Thermophoresis (MST); parent: 18 nM

Kd [nM]	Variant
525	chain 1 MNYLLGAFKPACNISITFSDGKNRKQVPMKKENGQTALVPLFHSQDTISGKVCIEPYQGKKVEHNGVKVELLGQIEMYFDRGNFADFTSLVRALDVPGEIYERKTYPFEFPTVEMPYETYNGVNVRLRYVLKVTVTRGYAGSILEYQELVVRNYAPLPDINNSIKMEVGIEDCLHIEFEYNKSKYHLKDVILGKIYFLLVRIKMKNMDLEIRRRESTGAGANTHVETETLAKFELMDGTPVRGESIPVRLFLAPYDLTPTHRNINNKFSVKYYLNLVLVDEEDRRYFKQQEITLYRLKEDASS [chain 1 Y85A, chain 1 E93A]
